Measured values published in patent publication US20030022244A1.

Biological target: mutant p53 protein
Test: method not stated

- Kd: 100 nM
B1: ME1 single-chain antibody (scFv ME1) (scFv)
scFv: QVKLQQSGAELAKPGASVKMSCKTSGYTFTSYWMNWVKQRPGQGLEWIGYINPTTGYTKYNQKFKDKATLTADKSSSTAYMQLSSLTNVDSAVYYCTTGYSYFDYWGQGTTVTVSSGGGGSGGGGSGGGGSDIELTQSPAIMSASPGEKVTITCSASSSVNYMHWFQQKPGTSPKLWISSTSNLASGVPARFSGSGSGTSYSLTISRMEAEDAATYYCQQRSSYPYTFGGGTKLQIKRAAAGAPVPYPDPLEPRAA
